Measurements: US7807471

Target: recombinant murine IL-12 (R&D Systems) (murine) (UniProt P43431)
Test: cell-based or functional assay

in vitro neutralization of IL-12 (times (against the anti-p35 mAb)): 5
Substance: C17.8 (rat anti-mouse IL-12/IL-23p40, IgG2a) (antibody)
